This note sets out measurements from publication PMC4167974.

In this assay the target is fluorescein-labeled BalhA1 leader peptide (Bacillus sp. Al Hakam). The assay can be described thus: fluorescence polarisation.

Broadly, the Kd is the free concentration of one partner at which half of the binding sites on the other are occupied at equilibrium, for simple one-to-one binding. MBP-BalhC (natural protein) had a Kd of 11 µM.
